Measurements as given in PMC5650642.

Legend:
[1] = biological target: T1, His-OpaR (Vibrio parahaemolyticus RIMD2210633) (UniProt Q79YV4); assay: DNase I footprinting
T1 sequence: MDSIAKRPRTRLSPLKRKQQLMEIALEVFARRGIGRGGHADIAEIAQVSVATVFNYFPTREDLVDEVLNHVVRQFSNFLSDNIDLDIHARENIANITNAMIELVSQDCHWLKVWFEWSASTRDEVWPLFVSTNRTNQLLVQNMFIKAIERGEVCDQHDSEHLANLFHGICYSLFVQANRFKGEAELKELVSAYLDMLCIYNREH

[2] = biological target: His-ToxR (Vibrio parahaemolyticus RIMD2210633) (UniProt Q05938); assay: DNase I footprinting
Sequence of UniProt Q05938 (Q05938 1-176): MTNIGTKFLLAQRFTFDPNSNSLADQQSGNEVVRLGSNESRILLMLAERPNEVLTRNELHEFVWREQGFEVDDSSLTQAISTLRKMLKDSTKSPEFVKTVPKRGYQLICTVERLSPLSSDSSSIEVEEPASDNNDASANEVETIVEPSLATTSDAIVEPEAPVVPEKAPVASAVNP

Row | Sequence | binding [1] | binding [2]
1 | ACACTTTGCACTCTTTTATGGAACAAATATTATTAGACCGAAATAATATTTGCTGAAACATCCTTGTTTCAAGGGTAGTATTTAAAACGAACAGTAAGCCTATTATTTTAGTTATAATTACTAAGTTATTAGACTCTTTGACTTACGCTTTCACTACCTGAATTACGTTGTTTTAGAAATTAAAATTTCAACAACGTAATATGACTTCATTTTCATTATATATTTCGACAAAGAATGATTAGCACGC (double strand) [VP1400 footprinting fragment] | binds | binds
2 | CGCTTGGATTACTTTCATCGATCGGTCTTCTTGTGAAGTCGCTGAAAAACATAATGTTAAGTTCCAACTGAGTTGATAATAAAATAATAAAGATAGATTTTTTTATTGTATTCGCCTGCTATGCCAAATGACATGCAATGCATTTTTTCTGATTTTATAGATAAAAAAAGATTTTTAGACAATAAAAAGCCGATAAATCTAATTAAAATCCATTTTGTGTGATCTTTGTTCCTAAT (double strand) [VP1409 footprinting fragment(s)] | binds | binds
3 | ATTCTCCACAACCAACATCGTAAACATGGTTGCGGTGACGTTTAAGCTGATAAGGCTTACAAGTACGATTTGGTGTGCTAATGCTACTAATTTAATTCATAACATTCAATCACATAGAAAACTTCCAGAAAACCGAAATGCCCGAGAAATAACAAAACCACAGGTTATTTGGTTGTTTTAACTATCAATTCAAACTTATTACCCTTCAATCCAACTCAAAAGGCAGGCTTTAAGCAAAAACAGTTTTTTACTTTTGGGCAGAAGTTAACAAATTCAA (double strand) [VP1388 footprinting fragment] | binds | –
